The results in this text go back to publication PMC6530996, “HspB1 phosphorylation regulates its intramolecular dynamics and mechanosensitive molecular chaperone interaction with filamin C” (Science Advances, 2019).

As usually defined, the stoichiometry N is the number of molecules, sites or subunits per partner or assembly. The Kd is a measure of binding affinity in units of concentration.

In one data set the test system is HspB1_84–170. Nature of the data set: crystal structure of HspB1_84–170 with PPR peptide. The data set is classed as binding, human. As to conditions: X-ray, 5 mM peptide, space group P12_11, 2.1 Å. An excerpt:
We next carried out crystallographic trials, using a strategy of mixing peptide mimics of the PPR, varying in length and degree of phosphorylation, with a well-ordered ACD construct (HspB1_84–170). […] The monomers within each dimer differ at their N-terminal ends: The β2 strand of one is intramolecularly hydrogen-bonded to its own β3 strand, whereas in the other these residues are extended and stabilized by contacts with a β4-β8 groove of a neighboring dimer (Fig. 3, A and B). This groove also acts as a binding pocket for an intrasubunit interface within the C-terminal region (fig. S4B) ([29]).
Crystals were obtained following initial screens using HspB1_84–170 (18 mg ml^−1) with a fourfold molar excess of one of several peptide mimics of the N-terminal region varying in length and degree of phosphorylation. […]
Diffraction data were integrated using iMosflm and scaled and merged using Aimless in the CCP4 suite with truncation at 2.1 Å. Phases were determined by molecular replacement using Phaser with a previous HspB1 x-ray structure input as a search model (PDB 4MJH, modified by removal of flexible loops, bound C-terminal peptide, and β2 strands). […]

In data set [1] the target is filamin C (FLNC) domains 18-21, 1943-2408 (UniProt Q14315). Nature of the data set: gas-phase collisional dissociation, tandem native MS. To be noted: reference: unphosphorylated HspB1 80-88 peptide; sites S82.
Sequence of filamin C (FLNC) domains 18-21, 1943-2408 (Q14315 whole entry, looked up, tested part not stated): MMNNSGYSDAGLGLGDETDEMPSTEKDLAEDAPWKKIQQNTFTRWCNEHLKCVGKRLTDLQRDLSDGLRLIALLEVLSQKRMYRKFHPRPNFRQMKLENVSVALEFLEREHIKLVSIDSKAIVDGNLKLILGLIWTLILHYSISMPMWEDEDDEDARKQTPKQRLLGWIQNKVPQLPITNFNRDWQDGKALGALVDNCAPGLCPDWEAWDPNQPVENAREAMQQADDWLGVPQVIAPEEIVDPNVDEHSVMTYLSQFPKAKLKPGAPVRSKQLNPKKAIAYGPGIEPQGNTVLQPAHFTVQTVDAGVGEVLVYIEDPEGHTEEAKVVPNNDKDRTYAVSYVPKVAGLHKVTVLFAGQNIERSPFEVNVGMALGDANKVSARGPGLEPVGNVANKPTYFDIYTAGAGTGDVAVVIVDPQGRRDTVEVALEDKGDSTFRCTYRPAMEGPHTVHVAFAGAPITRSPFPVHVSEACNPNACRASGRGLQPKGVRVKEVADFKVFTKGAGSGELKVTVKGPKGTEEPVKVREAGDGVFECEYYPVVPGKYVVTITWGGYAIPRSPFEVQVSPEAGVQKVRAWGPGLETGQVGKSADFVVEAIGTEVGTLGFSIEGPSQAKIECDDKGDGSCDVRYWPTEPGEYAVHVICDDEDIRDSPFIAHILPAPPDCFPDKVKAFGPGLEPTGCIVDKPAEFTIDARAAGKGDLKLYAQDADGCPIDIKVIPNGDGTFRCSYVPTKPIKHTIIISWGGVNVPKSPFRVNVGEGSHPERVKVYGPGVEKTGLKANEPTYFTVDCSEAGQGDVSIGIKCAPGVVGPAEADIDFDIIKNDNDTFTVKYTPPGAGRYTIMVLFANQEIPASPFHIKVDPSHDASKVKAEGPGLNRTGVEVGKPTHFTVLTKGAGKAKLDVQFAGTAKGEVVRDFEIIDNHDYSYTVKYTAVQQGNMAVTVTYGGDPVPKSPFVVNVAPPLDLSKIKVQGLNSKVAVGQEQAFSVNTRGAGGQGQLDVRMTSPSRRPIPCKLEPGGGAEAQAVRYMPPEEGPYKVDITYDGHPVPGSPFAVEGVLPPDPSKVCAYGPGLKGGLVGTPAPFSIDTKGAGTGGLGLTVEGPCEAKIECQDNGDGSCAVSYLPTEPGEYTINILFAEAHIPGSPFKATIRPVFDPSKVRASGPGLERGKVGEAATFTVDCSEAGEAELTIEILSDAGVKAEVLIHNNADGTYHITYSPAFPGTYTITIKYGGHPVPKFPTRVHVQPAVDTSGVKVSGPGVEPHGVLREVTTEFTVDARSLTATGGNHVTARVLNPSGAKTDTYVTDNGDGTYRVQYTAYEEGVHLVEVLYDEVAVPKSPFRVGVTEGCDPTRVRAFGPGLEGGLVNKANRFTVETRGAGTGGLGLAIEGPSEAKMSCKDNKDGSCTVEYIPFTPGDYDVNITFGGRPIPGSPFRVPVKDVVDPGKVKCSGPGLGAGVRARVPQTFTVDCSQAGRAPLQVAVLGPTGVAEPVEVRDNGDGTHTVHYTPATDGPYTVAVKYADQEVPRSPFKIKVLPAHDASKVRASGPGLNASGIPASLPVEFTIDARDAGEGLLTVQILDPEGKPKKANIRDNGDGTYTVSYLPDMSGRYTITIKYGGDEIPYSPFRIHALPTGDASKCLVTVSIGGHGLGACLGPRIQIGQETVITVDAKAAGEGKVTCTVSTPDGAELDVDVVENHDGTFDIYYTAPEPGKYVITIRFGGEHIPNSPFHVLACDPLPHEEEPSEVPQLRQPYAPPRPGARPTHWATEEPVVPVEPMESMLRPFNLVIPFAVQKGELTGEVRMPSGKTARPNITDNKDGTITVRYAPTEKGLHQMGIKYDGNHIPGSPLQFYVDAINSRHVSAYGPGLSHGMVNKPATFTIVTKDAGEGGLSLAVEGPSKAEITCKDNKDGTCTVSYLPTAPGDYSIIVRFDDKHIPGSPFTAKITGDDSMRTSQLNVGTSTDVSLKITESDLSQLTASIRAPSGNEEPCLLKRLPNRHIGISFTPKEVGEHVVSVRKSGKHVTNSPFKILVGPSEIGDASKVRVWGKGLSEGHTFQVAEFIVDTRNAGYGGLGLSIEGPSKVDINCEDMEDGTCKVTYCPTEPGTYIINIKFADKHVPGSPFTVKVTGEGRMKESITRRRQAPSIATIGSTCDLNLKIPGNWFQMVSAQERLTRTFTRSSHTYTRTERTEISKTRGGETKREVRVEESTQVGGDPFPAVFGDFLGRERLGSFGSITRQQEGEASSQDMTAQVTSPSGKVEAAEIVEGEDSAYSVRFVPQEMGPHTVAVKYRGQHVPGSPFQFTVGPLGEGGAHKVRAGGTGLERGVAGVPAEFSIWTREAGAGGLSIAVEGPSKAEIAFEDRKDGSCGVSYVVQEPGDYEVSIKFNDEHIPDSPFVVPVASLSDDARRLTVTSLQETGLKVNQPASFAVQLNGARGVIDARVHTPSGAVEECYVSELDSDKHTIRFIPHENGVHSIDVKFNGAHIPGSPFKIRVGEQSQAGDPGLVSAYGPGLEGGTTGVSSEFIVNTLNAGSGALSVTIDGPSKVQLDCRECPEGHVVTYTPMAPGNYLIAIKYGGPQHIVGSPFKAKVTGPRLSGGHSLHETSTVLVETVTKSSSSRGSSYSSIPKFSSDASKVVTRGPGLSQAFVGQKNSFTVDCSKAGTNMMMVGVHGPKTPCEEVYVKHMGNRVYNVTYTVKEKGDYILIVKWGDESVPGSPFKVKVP
A short description of data set [2]: native MS of HspB1_77–171 oligomeric state. Type of data set: physicochemical. To be noted: 10 μM, 200 mM ammonium acetate pH 6.9, 10-fold molar excess DTT. The text has this: To test this hypothesis, we recorded mass spectra under conditions preserving noncovalent interactions. […] The combined NMR and mass spectrometry (MS) data are therefore consistent with phosphorylation modulating an order-to-disorder transition by β2 and the PPR that leads to oligomer dissociation via rearrangement of intradimer contacts.
A pET28d(+) vector encoding human HspB1 ACD (residues 84 to 171) was transformed into Escherichia coli BL21(DE3) cells (Agilent) and expressed and purified as described previously ([29]). For crystallography, residue K171 was deleted using a site-directed mutagenesis kit (Agilent) and HspB1_84–170 was expressed and purified as described. […] Concentrations were determined by using a bicinchoninic acid assay (Thermo Pierce).
Because HspB1 can form disulfide-linked dimers, experiments involving the ACD were performed in the presence of 10-fold molar excess DTT. […] Native MS and IM-MS data were recorded on a Synapt G1 mass spectrometer (Waters) modified for the transmission of intact noncovalent protein complexes. HspB1_77–171 variants were analyzed at a concentration of 10 μM in 200 mM ammonium acetate (pH 6.9). […]

The target in data set [3] is T1, human FLNC domains 18 to 21 (FLNC_(d18–21)), EEF-tagged (human, UniProt Q14315 1943-2408).
T1 sequence (looked up): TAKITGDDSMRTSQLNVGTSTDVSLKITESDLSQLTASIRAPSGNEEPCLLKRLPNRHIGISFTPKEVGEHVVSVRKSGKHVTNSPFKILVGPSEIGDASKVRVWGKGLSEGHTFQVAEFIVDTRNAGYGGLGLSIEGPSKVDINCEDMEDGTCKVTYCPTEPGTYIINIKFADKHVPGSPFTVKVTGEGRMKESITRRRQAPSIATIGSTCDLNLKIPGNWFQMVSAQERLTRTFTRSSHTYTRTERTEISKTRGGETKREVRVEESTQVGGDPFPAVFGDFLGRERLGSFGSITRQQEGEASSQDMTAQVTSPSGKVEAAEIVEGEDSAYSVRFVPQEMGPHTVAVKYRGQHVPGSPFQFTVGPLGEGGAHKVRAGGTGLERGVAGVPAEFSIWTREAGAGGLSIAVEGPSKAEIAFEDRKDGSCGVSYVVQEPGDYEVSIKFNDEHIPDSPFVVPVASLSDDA
As to the kind of experiment: cell-based or functional assay.

The target of data set [4] is T2, FLNC_(d18–21,ΔI), FLNC domains 18 to 21 lacking the d20 insertion (human, UniProt Q14315 1943-2408, excluding 2163 to 2243).
T2 construct: human filamin C, residues 1943 to 2408 of UniProt Q14315 excluding 2163 to 2243; The results speak of 82 insertion residues; 2163 to 2243 are 81; source: E. coli BL21(DE3) pLysS, purified (HisTrap, SEC Superdex 200)
T2 sequence (looked up): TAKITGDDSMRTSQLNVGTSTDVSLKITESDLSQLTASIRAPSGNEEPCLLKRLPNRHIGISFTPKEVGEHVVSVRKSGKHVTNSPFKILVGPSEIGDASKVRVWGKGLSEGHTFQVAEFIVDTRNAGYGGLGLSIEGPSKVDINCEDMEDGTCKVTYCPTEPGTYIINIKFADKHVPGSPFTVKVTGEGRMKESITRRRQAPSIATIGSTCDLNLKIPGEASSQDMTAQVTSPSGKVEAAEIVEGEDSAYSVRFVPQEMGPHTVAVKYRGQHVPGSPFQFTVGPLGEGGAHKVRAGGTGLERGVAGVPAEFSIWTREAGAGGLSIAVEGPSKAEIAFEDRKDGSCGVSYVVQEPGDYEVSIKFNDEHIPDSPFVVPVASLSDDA
Nature of the data set: native MS; native IM-MS of mixtures of FLNC_(d18–21) or FLNC_(d18–21,ΔI) with HspB1_(84–171), HspB1 peptides or an excess of control peptides; 200 mM ammonium acetate pH 6.9. As to conditions: both partners purified.

The target in data set [5] is T1, human FLNC domains 18 to 21 …. The data set is described as above. As to conditions: both partners purified.
Data set [6] has the same target. As to the kind of experiment: native MS; titration: FLNC_(d18–21) constant at 5 μM, peptide 5 to 160 μM, 200 mM ammonium acetate pH 6.9, acetonitrile vapor; fit with three equivalent binding sites (UniDec). As to conditions: both partners purified.
Data set [7] concerns the target T3, HspB1_(84–170), ACD construct for crystallography (human, UniProt P04792 84-170).
T3 construct: human HspB1 ACD, residues 84 to 170 (K171 deleted from the 84-171 construct); Dimer in the crystal (four dimers in the asymmetric unit); The residual Gly-Ser overhang that the methods tell of 'both proteins' may also stand on this construct; also called HspB1 ACD
As to the kind of experiment: crystal structure; HspB1_(84–170) 16 mg/ml with 5 mM peptide in PBS pH 7.0; 22% PEG 3350, 0.02 M sodium potassium diphosphate, 0.1 M bis-tris propane pH 7.5; 2.1 Å, space group P12_(1)1. As to conditions: both partners purified.

Non-standard residues stand in square brackets, D forms with d. No end group written: not given here. pS = N[C@@H](COP(=O)(O)O)C(=O)O

T3 sequence (P04792 84-170): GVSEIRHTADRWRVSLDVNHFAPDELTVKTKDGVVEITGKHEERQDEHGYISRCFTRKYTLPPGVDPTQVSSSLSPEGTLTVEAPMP

Turning to “ALSRQL^PSSGVSEI [^P82HspB1_76–88, Peptide from human HspB1 phosphorylated at S82, captured in part in crystal structure]”, the “binding to HspB1_84–170 in crystal” value in the data set on HspB1_84–170 is “structure of HspB1_84–170 bound to ALSRQL^PSSGVSEI”.
Consider “HspB1 (Hsp27) 80-88 (from UniProt P04792) pS82 HspB1 80-88 peptide”, for which the “other: inflection point(s) of breakdown curve” value in data set [1] was “stronger; reference ≈55 and ≈110”.
Regarding “HspB1_77–171: Human HspB1 ACD extended at the N-terminus to encompass the principle phosphorylation region (PPR)”, in data set [2], the oligomeric state result is “populates a monomer-dimer equilibrium”.
In the case of “^2PHspB1_77–171: Human HspB1 ACD and PPR with phosphomimic substitutions S78E and S82D”, the oligomeric state result in data set [2] is reported as “phosphomimicry shifts the oligomeric state toward the monomer”.

B1: HspB1_(80–88) peptide (peptide, UniProt P04792 80-88, looked up)
peptide: QLSSGVSEI
notes: The methods say that N termini were acetylated 'when the N-terminal residue was Glu'; this peptide begins with Gln, so whether it was acetylated is open; also called unphosphorylated peptide; source: synthetic peptide, bought: Biomatik
Turning to B1, the “activation required for the transition of unfolding intermediate B to final state C of FLNC_(d18–21) with one peptide bound (coulombically steered unfolding, IM-MS)” value in data set [3] is roughly 60 V. Besides, the binding result in data set [4] is given as “binds”. Besides, the entries for the “stoichiometry N” value in data set [5] and in data set [6] were no more than 2 and no more than 3, respectively. Also, the Kd in data set [6] was determined as 130 ± 17 µM.

B2: ^P82HspB1_(76–88), peptide mimic of the PPR phosphorylated at Ser82 (peptide)
peptide: ALSRQL[pS]SGVSEI
notes: human HspB1 residues 76 to 88; Only 3 to 6 residues of the peptide could be built in the density; also called PPR peptide; source: synthetic peptide, bought: Biomatik
As for B2, the binding result in data set [7] was “binds”.
